Data reported in patent US20250092156A1.

Target: FLAG-tagged WT RPTPα (WT-RPTPA, NM 008980.2, C-terminal FLAG) (mouse) (UniProt P18052)
Experiment: FLIM-FRET, anti-HA A488 donor with anti-FLAG A568 acceptor; unquenched donor around 2.4 ns

FLAG-tagged WT RPTPα (WT-RPTPA, NM 008980.2, C-terminal FLAG) (mouse), sequence (P18052 20-829 limits assumed): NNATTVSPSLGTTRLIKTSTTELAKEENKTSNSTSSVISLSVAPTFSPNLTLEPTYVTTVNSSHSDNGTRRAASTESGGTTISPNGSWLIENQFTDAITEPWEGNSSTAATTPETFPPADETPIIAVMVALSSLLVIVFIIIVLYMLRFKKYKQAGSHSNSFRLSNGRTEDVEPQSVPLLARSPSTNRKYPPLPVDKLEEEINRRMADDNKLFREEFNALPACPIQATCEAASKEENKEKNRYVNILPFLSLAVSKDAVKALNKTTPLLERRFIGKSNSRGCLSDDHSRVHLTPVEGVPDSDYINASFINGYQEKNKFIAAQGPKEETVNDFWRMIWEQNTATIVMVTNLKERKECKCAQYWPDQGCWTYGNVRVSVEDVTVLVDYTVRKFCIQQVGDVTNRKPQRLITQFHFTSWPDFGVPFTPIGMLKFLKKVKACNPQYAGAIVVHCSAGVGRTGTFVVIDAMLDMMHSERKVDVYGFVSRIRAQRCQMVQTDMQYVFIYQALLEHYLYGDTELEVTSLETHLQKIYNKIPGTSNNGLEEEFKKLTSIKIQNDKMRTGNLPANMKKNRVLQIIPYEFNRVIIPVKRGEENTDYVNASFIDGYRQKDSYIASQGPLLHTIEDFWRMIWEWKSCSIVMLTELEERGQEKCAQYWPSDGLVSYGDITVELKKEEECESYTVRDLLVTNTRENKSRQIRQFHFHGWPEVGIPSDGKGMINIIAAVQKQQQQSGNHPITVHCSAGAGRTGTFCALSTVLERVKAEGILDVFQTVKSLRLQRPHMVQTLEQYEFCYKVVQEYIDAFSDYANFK
HA-tagged WT RPTPα (WT-RPTPA, NM 008980.2, C-terminal HA), sequence (P18052 20-829): as the sequence (P18052 20-829 limits assumed) above

- donor fluorescence lifetime of quenched (H-FRET) population: 1.15 ns
Substance: HA-tagged WT RPTPα (WT-RPTPA, NM 008980.2, C-terminal HA) (from UniProt P18052 20-829) (receptor)
